Reference: patent US20260070961A1

Tests used:
[1] = molecular target: DENV-3 VLP (Dengue virus serotype 3); assay: BLI (Octet-HTX), IgG captured on Protein A biosensor, 5 ug/mL DENV-VLP
[2] = molecular target: DENV-3 VLP (Dengue virus serotype 3); assay: BLI (Octet-HTX), IgG captured on Protein A biosensor, 5 ug/mL DENV-VLP, 1:1 model

Question: Which response [1] does the source give for 4G2 (antibody) here?
Answer: 0.316

Question: And the koff [2]?
Answer: 0.000345 s⁻¹
